{"source": "patent US20150086562A1", "about": "(BIOATLA, published 2015)", "key": {"[1]": {"molecular_target": "T1, CD22 protein expressed on the surface of Daudi cells (human, UniProt P20273 20-847)", "T1 sequence (looked up)": "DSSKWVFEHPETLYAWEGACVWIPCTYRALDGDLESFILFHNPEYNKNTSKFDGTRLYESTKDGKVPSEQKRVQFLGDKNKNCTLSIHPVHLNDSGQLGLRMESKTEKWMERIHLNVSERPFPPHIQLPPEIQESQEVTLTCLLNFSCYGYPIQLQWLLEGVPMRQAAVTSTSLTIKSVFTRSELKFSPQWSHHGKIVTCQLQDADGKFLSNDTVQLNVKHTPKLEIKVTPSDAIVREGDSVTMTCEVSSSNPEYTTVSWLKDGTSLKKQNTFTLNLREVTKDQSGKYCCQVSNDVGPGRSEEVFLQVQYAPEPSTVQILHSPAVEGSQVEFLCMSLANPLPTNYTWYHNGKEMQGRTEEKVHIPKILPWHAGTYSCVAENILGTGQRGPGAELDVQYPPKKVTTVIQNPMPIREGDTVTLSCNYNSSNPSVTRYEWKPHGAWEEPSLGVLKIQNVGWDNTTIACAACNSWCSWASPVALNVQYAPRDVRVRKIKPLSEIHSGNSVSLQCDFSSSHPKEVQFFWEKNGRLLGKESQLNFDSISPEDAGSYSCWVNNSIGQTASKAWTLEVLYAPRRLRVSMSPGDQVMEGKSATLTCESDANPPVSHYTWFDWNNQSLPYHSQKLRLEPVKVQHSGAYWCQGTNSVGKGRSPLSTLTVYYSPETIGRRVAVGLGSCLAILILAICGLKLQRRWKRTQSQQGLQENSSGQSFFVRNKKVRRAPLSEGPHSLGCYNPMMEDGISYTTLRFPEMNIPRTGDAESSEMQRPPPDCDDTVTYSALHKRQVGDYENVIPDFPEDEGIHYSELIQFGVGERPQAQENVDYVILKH", "assay": "cell-based or functional assay"}, "[2]": {"molecular_target": "T2, recombinant CD22 extracellular domain", "T2 construct": "Kept apart from m18, which is cell-surface CD22; also called CD22 (analyte in the BIAcore runs); CD22 ECD", "assay": "ELISA on plates coated with recombinant CD22 extracellular domain (coating 2, 0.2, 0.02 or 0.002 ug/ml per paragraph 227; the sheet does not say which), anti-human IgG-HRP, read at 450 nm", "method": "Nunc-Immuno MaxiSorp 96 well plates were coated with 100 μl of 2 μg/ml, 0.2 μg/ml, 0.02 μg/ml or 0.002 μg/ml recombinant CD22 extracellular domain (PeproTech, Inc. catalog number 100-01 in coating solution (sodium bicarbonate in PBS). The plates were covered with plate sealer and incubated at 4° C. overnight. Plates were emptied and the residual liquid tapped out on paper towels. 200 μl washing solution (0.05% Tween-20 in PBS) was added and shaken at 200 RPM for 5 min at room temperature. The plates were emptied and residual liquid tapped out on paper towels. 200 μl blocking solution (2% Carnation milk in PBS) was added and shaken at 200 RPM for one hour at room temperature. Plates were emptied and residual liquid tapped out on paper towels. 100 μl of diluted samples containing VM1000, VM1001, VM1002, VM1003, VM1004, VM1005, VM1006, VM1007, VM1008, VM1009, VM1010, VM1011, VM1012, VM1013, VM1014, and VM1015 antibodies for ELISA were used. The samples were shaken at 200 RPM for one hour at room temperature; plates emptied and residual liquid tapped out on paper towels. 200 μl washing solution (0.05% Tween-20 in PBS) was added, shaken at 200 RPM for 5 min at room temperature; plates emptied and residual liquid tapped out on paper towels. This process was repeated three times. 100 μl of 1:2500 dilution of anti-human IgG conjugated with HRP diluted in block solution (2% Carnation milk in PBS) was added for all samples. 100 μl of 1:2500 dilution of anti-rabbit IgG conjugated with HRP diluted in block solution (2% Carnation milk in PBS) was added for control antibody. The contents were shaken at 200 RPM for one hour at room temperature, plates emptied and residue liquid tapped out on paper towels. 200 μl washing solution (0.05% Tween-20 in PBS) was added, shaken at 200 RPM for 5 min at room temperature; plates emptied and residual liquid tapped out on paper towels. This process was repeated three times. 100 μl TMB substrate solution was added, and incubated at room temperature. The reaction was stopped with 1 N HCl, and the plate read at 450 nm to determine relative binding affinity (FIG. 17)."}, "[3]": {"molecular_target": "T1, CD22 protein expressed on the surface …", "assay": "confocal immunofluorescence, FITC-labelled antibody on Daudi cells", "method": "Selected antiCD22 selected anti-CD22 Mab clones VM1000, VM1001, VM1002, VM1003, VM1004, VM1005, VM1006, VM1007, VM1008, VM1009, VM1010, VM1011, VM1012, VM1013, VM1014, and VM1015 of the invention were directly conjugated to F1TC using the Zenon labeling complex (Molecular Probes) using the manufacturer's recommended procedures. Approximately 1×10e7 Daudi cells were resuspended in PBS containing 5 ug/ml labeled anti-CD22 antibody and incubated for 45 minutes on ice. Cells then washed twice in PBS-FBS solution at 0 C. Cells were then incubated in RPMI 1640 media containing 10% FBS for varying periods at 37 C, harvested and washed in PBS at 0 C. The cells were then briefly fixed in 4% paraformaldehyde solution for 5 min at room temperature, then washed in PBS containing 0.05% Triton X-100. Cell pellets were collected by centrifugation and resupended in a minimal volume of FBS neat, and then applied to glass microscope slides. Prior to analysis, slides were treated with mounting fluid containing the nuclear stain DAPI, then coverslips were applied. Confocal images were recorded using an ACAS Ultima confocal microscope (Meridian Instruments, Inc., Okemos, Mich.) and represent 1-μm sections through the center of a focal plane using a 100× oil immersion objective.\nThe Anti-CD22 monoclonal antibodies selected clones VM1000, VM1001, VM1002, VM1003, VM1004, VM1005, VM1006, VM1007, VM1008, VM1009, VM1010, VM1011, VM1012, VM1013, VM1014, and VM1015 of the invention were analysed for their ability to be rapidly internalized into the intracellular compartment as judged by immunoflourescent signal on the cell surface versus the intracellular endo cytotic compartment. The antibodies of the invention were compared to BA006H, and humanized version of the murine monoclonal antibody LL2. In this example, FIG. 21A, the anti-CD22 antibodies of the invention bind to CD22 protein expressed on the surface of Daudi cells by approximately 20-fold compared to BA006H as judged by relative mean fluorescence (RMF), and are virtually completely internalized within the cell with 90 minutes, localizing predominantly to within the perinuclear golgi apparatus and associated lysozomes. Shown in FIG. 21B is a chart of the RMF surface binding values obtained in this manner for individual anti-CD22 antibodies of the invention."}}, "data": [{"binder": "VM1009 (antibody, V domains shown, Humanized antibody with human constant region; also called anti-CD22 Mab clone VM1009) VH: QVQLVQSGAEVKKPGASVKVSCKASGYVFTSYWLHWIRQSPSRGLEWLGYINPRNDYTEYNRIFKGRFVFSLDTSVSTAYLQICSLKAEDTAVYYCARRGITTFYWGQG VL: EIVLTQSPATLSLSPGERATLSCKSSQSVLYSAVEKNYLAWYQQKPGKAPKLLIYWASTRERGVPSRFSGSGSGTDFTFTISSLEAEDAATYYCKQYLSSWTFGQG", "values": [{"measurement": "Daudi Internalization by FACS, % Shift", "setting": "[1]", "value": 69.4, "unit": "%"}, {"measurement": "ELISA OD 450", "setting": "[2]", "value": 0.597}, {"measurement": "fold surface binding by relative mean fluorescence (RMF) compared to BA006H", "setting": "[3]", "value": "~20", "unit": "fold"}]}, {"binder": "VM1005 (antibody, V domains shown, Humanized antibody with human constant region; also called anti-CD22 Mab clone VM1005) VH: EVQLVQSGAEVKKPGATVKISCKVSGYVFTSYWLHWIRQSPSRGLEWLGYINPRNDYTEYNRIFKGRFVFSLDTSVSTAYLQICSLKAEDTAVYYCARRGITTFYWGQG VL: AIQLTQSPSSLSASVGDRVTITCKSSQSVLYSAVEKNYLAWYQQKPGQAPRLLIYWASTRERGVPSRFSGSGSGTDFTLTISSLQPEDFATYYCKQYLSSWTFGQG", "values": [{"measurement": "Daudi Internalization by FACS, % Shift", "setting": "[1]", "value": 86.4, "unit": "%"}, {"measurement": "ELISA OD 450", "setting": "[2]", "value": 0.372}, {"measurement": "fold surface binding by relative mean fluorescence (RMF) compared to BA006H", "setting": "[3]", "value": "~20", "unit": "fold"}]}, {"binder": "VM1008 (antibody, V domains shown, Humanized antibody with human constant region; also called Anti-CD22 Ab VM1008; anti-CD22 Mab clone VM1008) VH: QVQLVQSGAEVKKPGASVKVSCKASGYVFTSYWLHWVRQARGQRLEWIGYINPRNDYTEYNRIFKGRVTITADKSTSTAYMELSSLRSEDTAVYYCARRGITTFYWGQG VL: DIQMTQSPSSLSASVGDRVTITCKSSQSVLYSAVEKNYLAWYQQKPGQAPRLLIYWASTRERGIPDRFSGSGSGTDFTLTISRLEPEDFAVYYCKQYLSSWTFGQG", "values": [{"measurement": "Daudi Internalization by FACS, % Shift", "setting": "[1]", "value": 69.4, "unit": "%"}, {"measurement": "ELISA OD 450", "setting": "[2]", "value": 0.67}, {"measurement": "fold surface binding by relative mean fluorescence (RMF) compared to BA006H", "setting": "[3]", "value": "~20", "unit": "fold"}]}, {"binder": "VM1010 (antibody, V domains shown, Humanized antibody with human constant region; also called anti-CD22 Mab clone VM1010) VH: EVQLVQSGAEVKKPGESLRISCKVSGYVFTSYWLHWIRQSPSRGLEWLGYINPRNDYTEYNRIFKGRFTISRDNAKNSLYLQMNSLRAEDTAVYYCARRGITTFYWGQG VL: EIVLTQSPATLSLSPGERATLSCKSSQSVLYSAVEKNYLAWYQQKPGKAPKLLIYWASTRERGVPSRFSGSGSGTDFTFTISSLQPEDIATYYCKQYLSSWTFGQG", "values": [{"measurement": "Daudi Internalization by FACS, % Shift", "setting": "[1]", "value": 65.7, "unit": "%"}, {"measurement": "ELISA OD 450", "setting": "[2]", "value": 0.7}, {"measurement": "fold surface binding by relative mean fluorescence (RMF) compared to BA006H", "setting": "[3]", "value": "~20", "unit": "fold"}]}, {"binder": "VM1012 (antibody, V domains shown, Humanized antibody with human constant region; also called anti-CD22 Mab clone VM1012) VH: QVQLVQSGAEVKKPGASVKVSCKASGYVFTSYWLHWVRQAPGQGLEWMGYINPRNDYTEYNRIFKGRFTISRDNAKNSLYLQMNSLRAEDTAVYYCARRGITTFYWGQG VL: EIVLTQSPATLSVSPGERATLSCKSSQSVLYSAVEKNYLAWYQQKPGQAPRLLIYWASTRERGVPSRFSGSGSGTDFTFTISSLQPEDIATYYCKQYLSSWTFGQG", "values": [{"measurement": "Daudi Internalization by FACS, % Shift", "setting": "[1]", "value": 87.5, "unit": "%"}, {"measurement": "fold surface binding by relative mean fluorescence (RMF) compared to BA006H", "setting": "[3]", "value": "~20", "unit": "fold"}]}, {"binder": "VM1013 (antibody, V domains shown, Humanized antibody with human constant region; also called anti-CD22 Mab clone VM1013) VH: QVQLQESGPGLVKPSQTLSLTCTVSGYVFTSYWLHWIRQPPGKGLEWIGYINPRNDYTEYNRIFKGRFTISRDNAKNSLYLQMNSLRAEDTAVYYCARRGITTFYWGQG VL: AIQLTQSPSSLSASVGDRVTITCKSSQSVLYSAVEKNYLAWYQQKPGQAPRLLIYWASTRERGVPSRFSGSGSGTDFTLTISSLQPEDFATYYCKQYLSSWTFGQG", "values": [{"measurement": "Daudi Internalization by FACS, % Shift", "setting": "[1]", "value": 88.8, "unit": "%"}, {"measurement": "fold surface binding by relative mean fluorescence (RMF) compared to BA006H", "setting": "[3]", "value": "~20", "unit": "fold"}]}]}
